{
  "source": "patent US20150165067A1",
  "about": "(Eli Lilly, published 2015)",
  "key": {"[1]": {"target": "human FGFR3 S249C, endogenous on UMUC-14 bladder tumor cells (human) (UniProt P22607)", "test": "cell-based or functional assay"}, "[2]": {"target": "human FGFR3 on RT-112 bladder tumor cells (wild type and FGFR3-TACC3 fusion receptors) (human) (UniProt P22607)", "test": "cell-based or functional assay"}, "[3]": {"target": "FGFR3-TACC3 fusion on RT-4 bladder tumor cells (TACC3 exon-4) (human, UniProt Q9Y6A5 140-838, limits assumed)", "test": "cell-based or functional assay"}, "[4]": {"target": "human FGFR3 Y373C, endogenous on KMS-11 multiple myeloma cells (human) (UniProt P22607)", "test": "flow cytometry, 15 µg/mL Alexa488-labeled Antibody 1 on KMS-11 cells, quantified with Quantum Simply Cellular beads"}, "[5]": {"target": "human FGFR3 on RT-112 bladder tumor cells (wild type and FGFR3-TACC3 fusion receptors) (human) (UniProt P22607)", "test": "flow cytometry, 15 µg/mL Alexa488-labeled Antibody 1 on RT-112 cells, quantified with Quantum Simply Cellular beads"}, "[6]": {"target": "human FGFR3 S249C, endogenous on UMUC-14 bladder tumor cells (human) (UniProt P22607)", "test": "flow cytometry, 15 µg/mL Alexa488-labeled Antibody 1 on UMUC-14 cells, quantified with Quantum Simply Cellular beads"}, "[7]": {"target": "human FGFR3 wild type, endogenous on tumor cell lines (BFTC-905, KU-19-19, UMUC-3) (human) (UniProt P22607)", "test": "flow cytometry, 15 µg/mL Alexa488-labeled Antibody 1 on BFTC-905 cells, quantified with Quantum Simply Cellular beads"}, "[8]": {"target": "human FGFR3 wild type, endogenous on tumor cell lines (BFTC-905, KU-19-19, UMUC-3) (human) (UniProt P22607)", "test": "flow cytometry, 15 µg/mL Alexa488-labeled Antibody 1 on KU-19-19 cells, quantified with Quantum Simply Cellular beads"}, "[9]": {"target": "human FGFR3 wild type, endogenous on tumor cell lines (BFTC-905, KU-19-19, UMUC-3) (human, UniProt P22607 23-806)", "test": "cell-based or functional assay"}, "[10]": {"target": "T1, human FGFR3 on RT-112 bladder tumor cells (wild type and FGFR3-TACC3 fusion receptors) (human, UniProt P22607 23-806)", "test": "cell-based or functional assay"}, "[11]": {"target": "T1, human FGFR3 on RT-112 bladder tumor …", "test": "cell-based or functional assay", "remark": "listed apart in the source"}, "[12]": {"target": "human FGFR3 on Kato-III gastric tumor cells (human, UniProt P22607 23-806)", "test": "cell-based or functional assay"}, "[13]": {"target": "T2, human FGFR3(IIIb) WT on BaF3 cells (human, UniProt P22607 23-808)", "test": "cell-based or functional assay"}, "[14]": {"target": "T3, huFGFR3(IIIb), immobilized receptor (human, UniProt P22607-2 23-377, limits assumed)", "T3 construct": "Amine-coupled to a CM5 chip; also called human FGFR3(IIIb)", "T3 sequence (looked up)": "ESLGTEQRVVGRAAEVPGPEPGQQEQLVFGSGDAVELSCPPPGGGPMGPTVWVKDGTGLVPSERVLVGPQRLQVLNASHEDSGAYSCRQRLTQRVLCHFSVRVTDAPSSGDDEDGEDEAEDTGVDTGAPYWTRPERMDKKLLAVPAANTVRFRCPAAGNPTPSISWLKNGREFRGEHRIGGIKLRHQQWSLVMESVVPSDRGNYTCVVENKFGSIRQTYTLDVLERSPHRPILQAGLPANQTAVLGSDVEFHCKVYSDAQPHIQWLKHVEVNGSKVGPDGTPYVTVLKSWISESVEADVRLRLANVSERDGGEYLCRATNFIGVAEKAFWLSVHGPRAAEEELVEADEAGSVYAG", "test": "SPR, Biacore T200, 25 C, huFGFR3(IIIb) amine-coupled on CM5 chip, Conjugate 1 as analyte, 1:1 model, n=3", "experimental": "Use a CM5 chip containing immobilized receptor huFGFR3(IIIb) (generated using standard NHS-EDC amine coupling) on 2 flow cells. Prepare samples of Conjugate 1 by 2 fold serial dilutions starting at 60 nM, 6 dilutions total into running buffer. Immobilize receptor at 2.5 μg/mL (55 RU). Each analysis cycle consists of: (1) sample injection at 30 μL/min with 180 sec contact time, (2) dissociation by injection of buffer for 900 sec at 30 μL/min, (3) regeneration in a 0.5% solution of SDS contact time 30 sec at a flow rate of 40 μL/min. Process data using standard double-referencing and fit to a 1:1 binding model using Biacore® 2000 Evaluation software, version 4.1, to determine the association rate (kₒₙ, M⁻¹s⁻¹ units), dissociation rate (koff, s⁻¹ units), and Rmax (RU units). The equilibrium dissociation constant (KD) is calculated from the relationship of KD=koff/kₒₙ. KD is in molar units."}, "[15]": {"target": "T4, human FGFR3(IIIb)-Fc (human, UniProt P22607-2 23-377, limits assumed)", "T4 construct": "Coated on the MSD plate; not shown: Fc part", "T4 sequence (looked up)": "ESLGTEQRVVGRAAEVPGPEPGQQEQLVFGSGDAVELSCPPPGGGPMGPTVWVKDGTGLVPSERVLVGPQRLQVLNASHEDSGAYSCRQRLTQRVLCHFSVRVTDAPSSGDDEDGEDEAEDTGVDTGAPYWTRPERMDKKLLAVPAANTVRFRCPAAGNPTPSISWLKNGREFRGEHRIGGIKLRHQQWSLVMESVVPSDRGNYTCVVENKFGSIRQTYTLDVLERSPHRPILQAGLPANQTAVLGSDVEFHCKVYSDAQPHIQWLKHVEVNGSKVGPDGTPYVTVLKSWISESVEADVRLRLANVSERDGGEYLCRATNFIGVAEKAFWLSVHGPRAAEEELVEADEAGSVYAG", "test": "MSD electrochemiluminescence plate assay: blocking of ruthenium-labeled FGF1 (1 ug/mL, with heparin) binding to coated human FGFR3(IIIb)-Fc"}, "[16]": {"target": "human FGFR3(IIIb) S249C on BaF3 cells (human, UniProt P22607 23-808)", "test": "cell-based or functional assay"}, "[17]": {"target": "human FGFR3(IIIb) G372C on BaF3 cells (human, UniProt P22607 23-808)", "test": "cell-based or functional assay"}, "[18]": {"target": "human FGFR3(IIIb) Y375C on BaF3 cells (human, UniProt P22607 23-808)", "test": "cell-based or functional assay"}, "[19]": {"target": "T2, human FGFR3(IIIb) WT on BaF3 cells", "test": "cell-based or functional assay", "remark": "listed apart in the source"}, "[20]": {"target": "human FGFR3(IIIb) R248C on BaF3 cells (human, UniProt P22607 23-808)", "test": "cell-based or functional assay"}, "[21]": {"target": "T3, huFGFR3(IIIb), immobilized receptor", "test": "SPR (Biacore); the sentence names no antigen or format, the section is on immobilized huFGFR3(IIIb); naked Antibody 1, not Conjugate 1"}},
  "data": [
    {"binder": "Antibody 1-Alexa488 (antibody, human IgG1, lambda, V domains shown, Alexa488 label (sites not given)) VH: EVQLVQSGAEVKKPGASVKVSCKASGYMFTSYGISWVRQAPGQGLEWMGWVSTYNGDTNYAQKFQGRVTVTTDTSTSTAYMELRSLRSEDTAVYYCARVLGYYDSIDGYYYGMDVWGQGTTVTVSS VL: QSVLTQPPSLSVAPGKTATFTCGGNNIGDKSVHWYRQKPGQAPVLVMYLDTERPSGIPERMSGSNFGNTATLTITRVEAGDEADYYCQVWDSGSDHVVFGGGTKLTVLG", "values": [
      {"measurement": "internalization in UMUC-14 cells, cell-associated fluorescence by flow cytometry over 48 h (fold over control)", "setting": "[1]", "result": "> 9"},
      {"measurement": "internalization in RT-112 cells, cell-associated fluorescence by flow cytometry over 48 h (fold over background)", "setting": "[2]", "result": 7},
      {"measurement": "internalization in RT-4 cells, cell-associated fluorescence by flow cytometry over 48 h", "setting": "[3]", "result": "~7", "unit": "fold over background"},
      {"measurement": "FGFR3 cell surface expression (ABC)", "setting": "[4]", "result": 120000, "unit": "ABC"},
      {"measurement": "FGFR3 cell surface expression (ABC)", "setting": "[5]", "result": 16000, "unit": "ABC"},
      {"measurement": "FGFR3 cell surface expression (ABC)", "setting": "[6]", "result": 27000, "unit": "ABC"},
      {"measurement": "FGFR3 cell surface expression (ABC)", "setting": "[7]", "result": 11000, "unit": "ABC"},
      {"measurement": "FGFR3 cell surface expression (ABC)", "setting": "[8]", "result": "< 4000", "unit": "ABC"}
    ]},
    {"binder": "Conjugate 1 (antibody, human IgG1, lambda, V domains shown, DM4 attached through the sulfo-SPDB linker to available lysine residues (positions not given); DAR 3.5 ± 0.5 for the whole antibody, also called Antibody 1-sulfo-SPDB-DM4; the conjugate of the present invention) VH: EVQLVQSGAEVKKPGASVKVSCKASGYMFTSYGISWVRQAPGQGLEWMGWVSTYNGDTNYAQKFQGRVTVTTDTSTSTAYMELRSLRSEDTAVYYCARVLGYYDSIDGYYYGMDVWGQGTTVTVSS VL: QSVLTQPPSLSVAPGKTATFTCGGNNIGDKSVHWYRQKPGQAPVLVMYLDTERPSGIPERMSGSNFGNTATLTITRVEAGDEADYYCQVWDSGSDHVVFGGGTKLTVLG", "values": [
      {"measurement": "Cytotoxicity Conjugate 1 IC50, BFTC-905 (bladder) cells, Cell Titer-Glo, 96 h", "setting": "[9]", "result": 2.7, "unit": "nM"},
      {"measurement": "Cytotoxicity Conjugate 1 IC50, RT-112 (bladder) cells, Cell Titer-Glo, 96 h", "setting": "[10]", "result": 1.3, "unit": "nM"},
      {"measurement": "cytotoxicity IC50 (nM), RT112 cells", "setting": "[11]", "result": 2.1, "unit": "nM"},
      {"measurement": "cytotoxicity IC50 (nM), Kato-III cells", "setting": "[12]", "result": 5.4, "unit": "nM"},
      {"measurement": "cytotoxicity IC50 (nM), transfected Baf3-FGFR3(IIIb) cells", "setting": "[13]", "result": 2.5, "unit": "nM"},
      {"measurement": "Kd", "setting": "[14]", "result": 0.823, "unit": "nM"},
      {"measurement": "koff", "setting": "[14]", "result": 0.000187, "unit": "s⁻¹"},
      {"measurement": "kon", "setting": "[14]", "result": 227000, "unit": "M⁻¹ s⁻¹"},
      {"measurement": "IC50", "setting": "[15]", "result": 3.6, "unit": "nM"}
    ]},
    {"binder": "Antibody 1 (antibody, human IgG1, lambda, V domains shown, Human monoclonal antibody with a lambda light chain; also called naked Antibody 1; anti-FGFR3 antibody) VH: EVQLVQSGAEVKKPGASVKVSCKASGYMFTSYGISWVRQAPGQGLEWMGWVSTYNGDTNYAQKFQGRVTVTTDTSTSTAYMELRSLRSEDTAVYYCARVLGYYDSIDGYYYGMDVWGQGTTVTVSS VL: QSVLTQPPSLSVAPGKTATFTCGGNNIGDKSVHWYRQKPGQAPVLVMYLDTERPSGIPERMSGSNFGNTATLTITRVEAGDEADYYCQVWDSGSDHVVFGGGTKLTVLG", "values": [
      {"measurement": "IC50 for neutralizing FGF1 (51.6 nM)-induced 3H-thymidine incorporation in BaF3 cells", "setting": "[16]", "result": 2.17, "unit": "nM"},
      {"measurement": "IC50 for neutralizing FGF9 (34.72 nM)-induced 3H-thymidine incorporation in BaF3 cells", "setting": "[16]", "result": 0.46, "unit": "nM"},
      {"measurement": "IC50 for neutralizing FGF1 (51.6 nM)-induced 3H-thymidine incorporation in BaF3 cells", "setting": "[17]", "result": 4.81, "unit": "nM"},
      {"measurement": "IC50 for neutralizing FGF1 (51.6 nM)-induced 3H-thymidine incorporation in BaF3 cells", "setting": "[18]", "result": 8.77, "unit": "nM"},
      {"measurement": "IC50 for neutralizing FGF9 (34.72 nM)-induced 3H-thymidine incorporation in BaF3 cells", "setting": "[18]", "result": 1.42, "unit": "nM"},
      {"measurement": "IC50 for neutralizing FGF1 (51.6 nM)-induced 3H-thymidine incorporation in BaF3 cells", "setting": "[19]", "result": 4.2, "unit": "nM"},
      {"measurement": "IC50 for neutralizing FGF9 (34.72 nM)-induced 3H-thymidine incorporation in BaF3 cells", "setting": "[19]", "result": 0.4, "unit": "nM"},
      {"measurement": "IC50 for neutralizing FGF1 (51.6 nM)-induced 3H-thymidine incorporation in BaF3 cells", "setting": "[20]", "result": 1.32, "unit": "nM"},
      {"measurement": "Kd", "setting": "[21]", "result": 0.13, "unit": "nM"}
    ]}
  ]
}
